Assay results published in publication PMC12168134, “Improving the solubility of single domain antibodies using VH‐like hallmark residues” (Protein Science : A Publication of the Protein Society, 2025).

Legend:
[1] = target: the molecule itself; experiment: SEC; Hiload 16/600 Superdex 200 pg in PBS; Nlgn2 extracellular domain with His6
[2] = target: the molecule itself; experiment: SEC; Nlgn2 with Avitag; 10 mM HEPES-NaOH pH 7.4, 150 mM NaCl, 3 mM CaCl2

B1: Nlgn2 extracellular domain with His6 tag in the C-terminus (domain or fragment, mouse, UniProt Q69ZK9 15-678, looked up)
chain: QRGGGGPGGGAPGGPGLGLGSLGEERFPVVNTAYGRVRGVRRELNNEILGPVVQFLGVPYATPPLGARRFQPPEAPASWPGVRNATTLPPACPQNLHGALPAIMLPVWFTDNLEAAATYVQNQSEDCLYLNLYVPTEDGPLTKKRDEATLNPPDTDIRDSGKKPVMLFLHGGSYMEGTGNMFDGSVLAAYGNVIVVTLNYRLGVLGFLSTGDQAAKGNYGLLDQIQALRWLSENIAHFGGDPERITIFGSGAGASCVNLLILSHHSEGLFQKAIAQSGTAISSWSVNYQPLKYTRLLAAKVGCDREDSTEAVECLRRKSSRELVDQDVQPARYHIAFGPVVDGDVVPDDPEILMQQGEFLNYDMLIGVNQGEGLKFVEDSAESEDGVSASAFDFTVSNFVDNLYGYPEGKDVLRETIKFMYTDWADRDNGEMRRKTLLALFTDHQWVAPAVATAKLHADYQSPVYFYTFYHHCQAEGRPEWADAAHGDELPYVFGVPMVGATDLFPCNFSKNDVMLSAVVMTYWTNFAKTGDPNQPVPQDTKFIHTKPNRFEEVVWSKFNSKEKQYLHIGLKPRVRDNYRANKVAFWLELVPHLHNLHTELFTTTTRLPPYATRWPPRTPGPGTSGTRRPPPPATLPPESDIDLGPRAYDRFPGDSRDYSTELS
notes: Neuroligin 2 (Nlgn2), mouse, extracellular domain, residues 15-678; Construct used to immunise the alpaca; main SEC peak was a dimer; also called recombinant Nlgn2 extracellular domain; mouse Nlgn2 (15-678); source: Expi293F cells, supernatant, purified (Ni-NTA, SEC); not shown: His6, C-terminal, kept
stoichiometry N [1]: 2

B2: Biotinylated recombinant Nlgn2 extracellular domain with Avitag (domain or fragment, mouse, UniProt Q69ZK9 15-678, looked up)
chain: B1 chain
modifications: biotin on the Avitag (biotinylated with BirA)
notes: Neuroligin 2 (Nlgn2), extracellular domain; residues 15-678 of mouse Nlgn2 are stated only for the His6 construct used for immunisation, not for this Avitag construct; probably the same; Eluted as a dimeric peak in SEC; also called Nlgn2 with Avitag; Biotinylated Nlgn2; source: purified by SEC, biotinylated with BirA; not shown: Avitag, C-terminal, kept
stoichiometry N [2]: 2
